Assay results: publication PMC9896810, “Crk proteins activate the Rap1 guanine nucleotide exchange factor C3G by segregated adaptor-dependent and -independent mechanisms” (Cell Communication and Signaling : CCS, 2023)
Blank lines part the entries; values can stand above or below the binder they belong to.

Experiments:
[1] = biological target: T1, C3G (full-length, residues 4-1077) (human, UniProt Q13905-1 4-1077); test: ITC; C3G or pC3G in the cell titrated with the Crk protein, 25 °C, 300 mM NaCl, pH 7.5; global fit of three titrations with SEDPHAT, three symmetric binding sites, microscopic kd; settings: both partners purified
T1 construct: also called C3G WT; RapGEF1; source: E. coli BL21 (DE3), purified (IMAC, TEV digestion, reversed IMAC, SEC); not shown: His, N-terminal, cleaved; Halo, N-terminal, cleaved
T1 sequence (looked up): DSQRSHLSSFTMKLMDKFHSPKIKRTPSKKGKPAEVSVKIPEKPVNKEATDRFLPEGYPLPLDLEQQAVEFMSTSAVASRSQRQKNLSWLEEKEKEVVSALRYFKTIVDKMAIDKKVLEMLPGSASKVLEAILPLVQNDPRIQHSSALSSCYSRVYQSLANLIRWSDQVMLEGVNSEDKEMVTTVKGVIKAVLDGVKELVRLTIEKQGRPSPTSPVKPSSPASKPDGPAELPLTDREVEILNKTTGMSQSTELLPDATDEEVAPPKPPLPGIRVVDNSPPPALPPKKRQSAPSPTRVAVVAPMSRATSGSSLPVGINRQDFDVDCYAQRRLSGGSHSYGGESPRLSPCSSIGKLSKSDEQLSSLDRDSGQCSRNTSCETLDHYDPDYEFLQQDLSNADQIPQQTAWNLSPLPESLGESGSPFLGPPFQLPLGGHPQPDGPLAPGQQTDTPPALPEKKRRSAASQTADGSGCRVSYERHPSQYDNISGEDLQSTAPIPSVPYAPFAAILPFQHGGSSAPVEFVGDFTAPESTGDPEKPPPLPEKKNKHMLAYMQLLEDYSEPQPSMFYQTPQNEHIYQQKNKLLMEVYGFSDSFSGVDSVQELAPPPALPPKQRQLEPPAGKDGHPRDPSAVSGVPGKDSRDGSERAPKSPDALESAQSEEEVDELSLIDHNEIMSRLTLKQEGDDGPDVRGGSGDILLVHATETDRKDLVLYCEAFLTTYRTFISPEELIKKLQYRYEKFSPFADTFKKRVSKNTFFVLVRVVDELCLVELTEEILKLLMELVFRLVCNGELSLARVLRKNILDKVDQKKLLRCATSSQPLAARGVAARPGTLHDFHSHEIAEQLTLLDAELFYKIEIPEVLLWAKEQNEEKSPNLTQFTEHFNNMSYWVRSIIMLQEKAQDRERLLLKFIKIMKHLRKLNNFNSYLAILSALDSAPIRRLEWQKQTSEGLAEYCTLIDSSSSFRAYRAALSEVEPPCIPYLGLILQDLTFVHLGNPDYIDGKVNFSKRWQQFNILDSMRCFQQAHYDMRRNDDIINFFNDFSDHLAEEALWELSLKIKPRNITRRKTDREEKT

C3G-AAAP = biological target: T2, C3G-AAAP (human, UniProt Q13905-1 4-1077, P283A | P284A | L286 | P287 | P289A | P453A | P454A | L456A | P457A | K459A | …); test: ITC; single-PRM mutant of C3G in the cell titrated with CrkL or CrkL-SH3N, 25 °C, 300 mM NaCl, pH 7.5; SEDPHAT, 1:1 heteroassociation model; N is the competent fraction of C3G; settings: both partners purified
T2 construct: human C3G isoform a, residues 4-1077; only P4 kept, P1, P2 and P3 mutated to Ala; source: E. coli BL21 (DE3), purified (IMAC, TEV digestion, reversed IMAC, SEC); not shown: His, N-terminal, cleaved; Halo, N-terminal, cleaved
T2 sequence (looked up): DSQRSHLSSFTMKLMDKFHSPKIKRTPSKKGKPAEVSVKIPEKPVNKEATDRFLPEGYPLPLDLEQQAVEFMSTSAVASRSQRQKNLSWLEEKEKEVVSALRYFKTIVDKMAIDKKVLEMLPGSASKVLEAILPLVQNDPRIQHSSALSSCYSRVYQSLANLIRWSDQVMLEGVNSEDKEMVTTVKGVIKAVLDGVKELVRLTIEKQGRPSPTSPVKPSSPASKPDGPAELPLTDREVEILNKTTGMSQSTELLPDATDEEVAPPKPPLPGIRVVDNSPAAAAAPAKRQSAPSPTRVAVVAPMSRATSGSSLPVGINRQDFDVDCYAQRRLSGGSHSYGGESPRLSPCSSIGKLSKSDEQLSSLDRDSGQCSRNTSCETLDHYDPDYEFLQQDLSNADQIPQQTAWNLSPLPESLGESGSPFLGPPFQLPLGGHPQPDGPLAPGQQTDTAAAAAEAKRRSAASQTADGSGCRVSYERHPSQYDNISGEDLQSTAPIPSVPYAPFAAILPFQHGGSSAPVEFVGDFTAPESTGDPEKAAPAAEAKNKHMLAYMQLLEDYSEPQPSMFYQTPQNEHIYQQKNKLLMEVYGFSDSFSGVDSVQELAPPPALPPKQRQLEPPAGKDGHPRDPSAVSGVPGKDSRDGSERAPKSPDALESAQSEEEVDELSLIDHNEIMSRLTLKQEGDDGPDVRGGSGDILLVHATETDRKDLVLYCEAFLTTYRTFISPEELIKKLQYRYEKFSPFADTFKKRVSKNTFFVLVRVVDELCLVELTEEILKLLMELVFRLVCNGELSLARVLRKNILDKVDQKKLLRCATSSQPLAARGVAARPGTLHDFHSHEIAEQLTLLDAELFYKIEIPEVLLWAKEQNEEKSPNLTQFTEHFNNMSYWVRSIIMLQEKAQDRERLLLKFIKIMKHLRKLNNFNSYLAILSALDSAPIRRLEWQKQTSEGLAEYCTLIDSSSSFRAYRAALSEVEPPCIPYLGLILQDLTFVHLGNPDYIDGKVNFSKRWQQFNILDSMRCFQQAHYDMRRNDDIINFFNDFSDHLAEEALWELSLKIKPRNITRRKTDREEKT

Kd [1]: 1600 nM
Kd (C3G-AAAP): 2700 nM
stoichiometry N (C3G-AAAP): 0.71
B1: CrkL-SH3N (domain or fragment, human, UniProt P46109 125-182, looked up)
chain: LEYVRTLYDFPGNDAEDLPFKKGEILVIIEKPEEQWWSARNKDGRVGMIPVPYVEKLV
notes: human CrkL, SH3N domain, residues 125-182, in pETEV15b; source: E. coli BL21 (DE3), purified (IMAC, TEV digestion, SEC); not shown: His, N-terminal, cleaved

Kd (C3G-AAAP): 2400 nM
B2: CrkL (full-length) (natural protein, human, UniProt P46109 1-303, looked up)
chain: MSSARFDSSDRSAWYMGPVSRQEAQTRLQGQRHGMFLVRDSSTCPGDYVLSVSENSRVSHYIINSLPNRRFKIGDQEFDHLPALLEFYKIHYLDTTTLIEPAPRYPSPPMGSVSAPNLPTAEDNLEYVRTLYDFPGNDAEDLPFKKGEILVIIEKPEEQWWSARNKDGRVGMIPVPYVEKLVRSSPHGKHGNRNSNSYGIPEPAHAYAQPQTTTPLPAVSGSPGAAITPLPSTQNGPVFAKAIQKRVPCAYDKTALALEVGDIVKVTRMNINGQWEGEVNGRKGLFPFTHVKIFDPQNPDENE
notes: human CrkL, residues 1-303, in pETEV15b; also called Crk-like protein; source: E. coli BL21 (DE3), purified (IMAC, TEV digestion, SEC); not shown: His, N-terminal, cleaved
